We go through 11 molecules from patent US20110046043A1 (NEW YORK UNIVERSITY, published 2011).

*1 amine or outer side, *2 acyl side, *3 side chain or, on linkers, in order; H or OH if unused. Where no end group is shown, it is not given here. [ ]: non-standard residue; d: D form. Suc = O=C(CCC(=O)[*:2])[*:1] Some results are limits rather than exact numbers.

Assay [1] has as its target T1, IZN17 (peptide 11, AcIKKEIEAIKKEQEAIKKKIEAIEKLLQLTVWGIKQLQARIL-NH2) (N-terminal acetyl (Ac); C-terminal amide (NH2)).
T1 construct: also called peptide IZN17; 1ZN17
T1 chain: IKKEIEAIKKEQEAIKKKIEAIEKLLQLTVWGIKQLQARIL
The assay can be described thus: fluorescence polarization competition, displacement of peptide 12 from IZN17; value inexact because the peptide aggregates. For orientation: In fluorescence polarisation assays a small probe gives low polarisation when free and higher when bound to something large.

The target of assay [2] is HIV-1 HXB2 envelope (gp41) expressed on CHO[HIVe] (clone 7d2) cells (HIV-1 (HXB2), UniProt P04578 512-856). In words: cell-based or functional assay.
For assay [3], the target named is T1, IZN17 (peptide 11, …). The assay can be described thus: fluorescence polarization competition, displacement of peptide 12 from IZN17.
Assay [4] addresses T1, IZN17 (peptide 11, …). In words: fluorescence polarization competition, displacement of peptide 12 from IZN17; upper limit of the assay.
Assay [5] has as its target T1, IZN17 (peptide 11, …). The assay can be described thus: fluorescence polarization competitive binding assay with peptide 12 as probe.
Assay [6] addresses T1, IZN17 (peptide 11, …). In words: fluorescence polarization competition, displacement of peptide 12 from IZN17; compared with peptide 1.
Assay [7] has as its target T1, IZN17 (peptide 11, …). In words: fluorescence polarization, direct saturation binding of fluorescein-labeled peptide 12 to IZN17, PBS, 25° C.

Sequence of HIV-1 HXB2 envelope (gp41) expressed on CHO[HIVe] (clone 7d2) cells (P04578 512-856): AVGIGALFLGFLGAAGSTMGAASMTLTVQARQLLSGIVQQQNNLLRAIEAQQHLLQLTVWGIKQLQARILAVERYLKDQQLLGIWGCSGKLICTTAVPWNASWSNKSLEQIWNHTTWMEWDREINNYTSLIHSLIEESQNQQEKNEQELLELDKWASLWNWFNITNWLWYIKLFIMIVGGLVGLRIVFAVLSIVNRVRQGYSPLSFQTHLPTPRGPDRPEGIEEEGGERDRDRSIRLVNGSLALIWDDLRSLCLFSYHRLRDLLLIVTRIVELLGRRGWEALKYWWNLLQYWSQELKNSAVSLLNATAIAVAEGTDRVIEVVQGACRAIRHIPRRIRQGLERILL

B1: Peptide 1 (AcMTWMEWDREINNYT-NH2), 14-residue C-peptide derived from gp41 (peptide)
peptide: Ac-MTWMEWDREINNYT-NH2
notes: Unconstrained parent peptide; also called unconstrained C-peptide
In general, Kd refers to a measure of binding affinity in units of concentration. Read a low Kd as a tighter complex. In the assay with IZN17 (peptide 11, …) [1], B1 displayed a Kd of 37 µM.

B2: HBS α-helix 6 (XMTWEEWDKKIEEYT) (peptide)
peptide: XMTWEEWDKKIEEYT
modifications: X at position 1 is a pentenoic acid residue; N-terminal hydrogen bond surrogate (carbon-carbon bond by ring-closing metathesis in place of an i and i+4 hydrogen bond)
notes: also called peptide 6
Take B2: the “inhibition of gp41-mediated cell-cell fusion (syncytium formation, β-galactosidase activity)” value in assay [2] is above 200. Besides, in the assay with IZN17 (peptide 11, …) [3], the binding result is listed as “binds”.

B3: Peptide 10 (AcMTWEEWDKKIEEYTKKI-NH2) (peptide)
peptide: Ac-MTWEEWDKKIEEYTKKI-NH2
notes: Unconstrained counterpart of HBS α-helix 9; also called unconstrained peptide 10
In the case of B3, the binding result with IZN17 (peptide 11, …) [3] is “binds”.

B4: HBS α-helix 9 (XMTWEEWDKKIEEYTKKI) (peptide)
peptide: XMTWEEWDKKIEEYTKKI
modifications: X at position 1 is a pentenoic acid residue; internally-constrained α-helical region (hydrogen bond surrogate, carbon-carbon bond by ring-closing metathesis) spanning residues 1 through 4 of SEQ ID NO: 9
notes: also called peptide 9
Regarding B4, the “inhibition of gp41-mediated cell-cell fusion (syncytium formation, β-galactosidase activity), EC50” value in assay [2] was 43 µM. Moreover, the Kd with IZN17 (peptide 11, …) [4] was below 5 µM.

B5: HBS α-helix 8 (XNEMTWEEWDKKIEEYT) (peptide)
peptide: XNEMTWEEWDKKIEEYT
modifications: X at position 1 is a pentenoic acid residue; N-terminal hydrogen bond surrogate (carbon-carbon bond by ring-closing metathesis in place of an i and i+4 hydrogen bond)
notes: also called peptide 8
With B5, in assay [2], the “inhibition of gp41-mediated cell-cell fusion (syncytium formation, β-galactosidase activity)” value is above 200. The same molecule had a Kd in the assay with IZN17 (peptide 11, …) [4] below 5 µM.

B6: HBS α-helix 5 (XWAAWDREINNYT) (peptide)
peptide: XWAAWDREINNYT
modifications: X at position 1 is a pentenoic acid residue; N-terminal hydrogen bond surrogate (carbon-carbon bond by ring-closing metathesis in place of an i and i+4 hydrogen bond)
notes: Similar to 1 and 2 but missing N-terminal Met-626 and Thr-627; also called peptide 5
In the case of B6, the “inhibition of gp41-mediated cell-cell fusion (syncytium formation, β-galactosidase activity)” value in assay [2] is above 200. Moreover, the binding result in the assay with IZN17 (peptide 11, …) [5] is “no binding”.

B7: HBS α-helix 3 (XWAAWDKKI) (peptide)
peptide: XWAAWDKKI
modifications: X at position 1 is a pentenoic acid residue; N-terminal hydrogen bond surrogate (carbon-carbon bond by ring-closing metathesis in place of an i and i+4 hydrogen bond)
notes: Shortest designed peptide with the Trp/Trp/Ile motif; also called peptide 3
Turning to B7, the “inhibition of gp41-mediated cell-cell fusion (syncytium formation, β-galactosidase activity)” value in assay [2] was above 200. Moreover, the binding result with IZN17 (peptide 11, …) [5] is given as “no binding”.

B8: HBS α-helix 2 (XMTWMEWDREINNYT) (peptide)
peptide: [Pentenoic acid]MTWMEWDREINNYT
modifications: staple (positions not given here); not fully specified (C-terminus, bridges)
notes: HBS-constrained form of peptide 1; made on Rink amide resin; also called peptide 2
Regarding B8, the binding result with IZN17 (peptide 11, …) [6] was “binds”. Besides, the “inhibition of gp41-mediated cell-cell fusion (syncytium formation, β-galactosidase activity)” value in assay [2] was above 200.

B9: Fluorescein-labeled peptide 12 (suc-MTWMEWDREINNYTC^Flu) (peptide)
peptide: Suc-MTWMEWDREINNYTC(fluorescein)-NH2
notes: also called fluorescent probe 12; fluorescein-labeled C-peptide derivative
In turn, B9 registered a Kd in the assay with IZN17 (peptide 11, …) [7] of 24 µM.

B10: HBS α-helix 7 (XEMAWEEWDKKIEEYT) (peptide)
peptide: XEMAWEEWDKKIEEYT
modifications: X at position 1 is a pentenoic acid residue; N-terminal hydrogen bond surrogate (carbon-carbon bond by ring-closing metathesis in place of an i and i+4 hydrogen bond)
notes: Thr-627 replaced with alanine; a glutamic acid added at the N-terminus; also called peptide 7
In the case of B10, the “inhibition of gp41-mediated cell-cell fusion (syncytium formation, β-galactosidase activity)” value in assay [2] was above 200. Besides, the “fold lower affinity than HBS α-helix 6” value in the assay with IZN17 (peptide 11, …) [3] was 20 fold.

B11: HBS α-helix 4 (XAAAWEEWDKKI) (peptide)
peptide: XAAAWEEWDKKI
modifications: X at position 1 is a pentenoic acid residue; N-terminal hydrogen bond surrogate (carbon-carbon bond by ring-closing metathesis in place of an i and i+4 hydrogen bond)
notes: Trp/Trp/Ile motif lies outside of the constraint; also called peptide 4
As to B11, the “inhibition of gp41-mediated cell-cell fusion (syncytium formation, β-galactosidase activity)” value in assay [2] is above 200. Besides, in the assay with IZN17 (peptide 11, …) [5], the binding result is recorded as “no binding”.
